Experimental data reported in US20260258124A1 (CIMEIO THERAPEUTICS, published 2026).

Key:
[1] = molecular target: T1, CD117 on wild-type cells (TF-1 cells, HSPCs, HSCs) (human, UniProt P10721 26-976); test: cell-based or functional assay
[2] = molecular target: T1, CD117 on wild-type cells (TF-1 cells, …); test: cell-based or functional assay; remark: listed apart in the source
[3] = molecular target: T1, CD117 on wild-type cells (TF-1 cells, …); test: flow cytometry on TF-1 wild-type cells, Fc receptors blocked, goat anti-human IgG Alexa Fluor 488 as secondary antibody
Method: Binding of the antibodies of the present disclosure to CD117 on TF-1 cells was measured. TF-1 wild-type cells were seeded at a concentration of 100,000 cells/well. A Fc receptor blocking was performed using 25 μL TruStain FcX (BioLegend) for 15 min. Next cells are treated with various concentrations of the antibodies to be tested (0.0001-5 μg/ml). After additional 30 min cells were washed, then a secondary antibody was added to the cells (IgG (H+L) Cross-Adsorbed Goat anti-Human, Alexa Fluor® 488). After 30 min and two additional wash steps a live dead staining via 7AAD (7-aminoactinomycin D) was performed using 0.5 μg/mL 7AAD for 10 min before analyzing cells in a flow cytometer.

[4] = molecular target: T2, human recombinant CD117 (c-Kit) from Sino Biological (Catalog No. 11996-H08H) (human, UniProt P10721 26-524); test: BLI Octet, set-up as in Example 2
T2 construct: also called soluble antigen
Method: (§1) In the main experiment kinetic assays were performed by first capturing IgG using anti-human Fc biosensors. The mAb capture biosensors were then submerged in wells containing different concentrations of antigen (association stage) followed by a dissociation step in running buffer. To allow for double reference correction, IgG-captured sensors were dipped into wells containing only buffer and blank sensors were also dipped into wells containing the antigen. This referencing provided a means of compensating for both the natural dissociation of the capture IgG and non-specific binding of the antigen to the sensor surface. Steps were performed at 25° C. at a constant shaking of 1000 rpm. New sensors were used for each sample. Dissociation rate constants (Kd) were calculated using the ForteBio Data Analysis software. All consumables used were those recommended by ForteBio.
(§2) All samples were diluted in freshly prepared running buffer. Antibody variants were immobilized onto the surface of a series of biosensors using the capture methods described. Antigen was passed over the surface to generate a binding response. Binding data for the IgG:antigen interactions were collected at 25° C. on the biosensors. A dilution series of the antigen was used in the association step, in order to fit results globally and get the best values for ka, kd, and KD. The response data for the binding of antigen to the surface immobilized IgG were fitted to a 1:1 binding model. HC0 LC0 refers to murine SR-1.

[5] = molecular target: T2, human recombinant CD117 (c-Kit) from …; test: BLI Octet, IgG on anti-human Fc sensor, soluble CD117, 1:1 fit
Method: IgG antibodies were immobilized on biosensors using suitable capture surfaces and binding of soluble antigen to immobilized antibodies was monitored by BLI (Octet). The resulting sensorgrams were analyzed using the supplied software (Fortebio). As antigen human recombinant CD117 (c-Kit) from Sino Biological was used (Catalog No. 11996-H08H, Lot #LC14SE0812). As a pre-experiment a series of experiments was performed to optimize assay parameters. The following parameters were selected:
as §1, §2

T1 sequence (P10721 26-976 limits assumed): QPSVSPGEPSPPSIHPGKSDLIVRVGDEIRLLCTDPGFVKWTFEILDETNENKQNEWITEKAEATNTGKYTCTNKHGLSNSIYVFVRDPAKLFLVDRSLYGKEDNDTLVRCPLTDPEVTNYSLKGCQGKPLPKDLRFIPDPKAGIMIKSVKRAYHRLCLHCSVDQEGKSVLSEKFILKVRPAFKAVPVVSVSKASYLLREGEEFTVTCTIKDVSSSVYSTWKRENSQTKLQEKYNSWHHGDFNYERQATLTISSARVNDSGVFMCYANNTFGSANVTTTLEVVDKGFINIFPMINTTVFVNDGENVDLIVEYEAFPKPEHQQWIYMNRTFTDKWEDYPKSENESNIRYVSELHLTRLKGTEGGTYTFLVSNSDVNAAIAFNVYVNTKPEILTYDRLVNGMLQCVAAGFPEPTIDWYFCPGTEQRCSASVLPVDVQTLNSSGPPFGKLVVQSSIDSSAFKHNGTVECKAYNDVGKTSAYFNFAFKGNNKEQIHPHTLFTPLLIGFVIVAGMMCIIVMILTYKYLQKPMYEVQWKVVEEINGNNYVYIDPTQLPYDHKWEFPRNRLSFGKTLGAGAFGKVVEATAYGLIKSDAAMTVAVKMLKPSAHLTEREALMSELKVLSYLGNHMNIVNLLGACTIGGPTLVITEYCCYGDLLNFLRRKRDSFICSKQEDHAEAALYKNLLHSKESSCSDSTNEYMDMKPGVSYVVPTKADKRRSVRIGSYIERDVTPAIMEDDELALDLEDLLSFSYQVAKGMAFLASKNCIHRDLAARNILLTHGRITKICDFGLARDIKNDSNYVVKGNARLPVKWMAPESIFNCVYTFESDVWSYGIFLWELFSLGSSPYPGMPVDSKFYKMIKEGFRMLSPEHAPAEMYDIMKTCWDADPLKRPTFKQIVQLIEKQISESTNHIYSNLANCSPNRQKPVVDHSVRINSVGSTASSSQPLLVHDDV
T2 sequence (P10721 26-524 limits assumed): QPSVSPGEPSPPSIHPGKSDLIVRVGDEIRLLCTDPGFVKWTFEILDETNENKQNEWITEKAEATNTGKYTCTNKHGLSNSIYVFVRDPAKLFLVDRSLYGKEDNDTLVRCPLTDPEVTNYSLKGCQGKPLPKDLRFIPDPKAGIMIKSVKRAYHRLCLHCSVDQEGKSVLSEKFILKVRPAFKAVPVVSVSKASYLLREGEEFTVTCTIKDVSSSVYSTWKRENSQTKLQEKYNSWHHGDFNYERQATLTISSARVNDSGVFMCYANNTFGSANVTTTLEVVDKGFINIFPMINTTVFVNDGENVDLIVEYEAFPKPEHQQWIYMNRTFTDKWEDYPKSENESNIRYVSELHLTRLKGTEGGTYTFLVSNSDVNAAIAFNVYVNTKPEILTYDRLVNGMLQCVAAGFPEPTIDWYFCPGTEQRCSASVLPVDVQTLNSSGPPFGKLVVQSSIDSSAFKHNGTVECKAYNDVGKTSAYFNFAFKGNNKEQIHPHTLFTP

B1: NegCtrl (antibody, V domains shown)
VH: QVQLQQSGPGLVKPSQTLSLTCAISGDSVSSNSAAWSWIRQSPGRGLEWLGRIYYRSKWYNDYAVSVKSRITINPDTSKNQFSLQLNSVTPEDTAVYYCARLDHRYHEDTVYPGMDVWGQGTLVTVSS
VL: DIELTQPPSVSVAPGQTARISCSGDNLPAYTVTWYQQKPGQAPVLVIYDDSDRPSGIPERFSGSNSGNTATLTISGTQAEDEADYYCASWDPSSGVVFGGGTKLTVL
notes: also called NegCtrl antibody (anti-chicken lysozyme); NegCtrt
IC50, inhibition of SCF-dependent proliferation of TF-1 cells (CellTiter-Glo), Average [1]: > 0.5 µg/mL | IC50, inhibition of SCF-dependent proliferation of TF-1 cells (CellTiter-Glo), Experiment #1 [1]: > 0.5 µg/mL | IC50, inhibition of SCF-dependent proliferation of TF-1 cells (CellTiter-Glo), Experiment #2 [1]: > 0.5 µg/mL | IC50, inhibition of SCF-dependent proliferation of CD34-positive HSPCs (CellTiter-Glo) [2]: > 10 µg/mL | binding result [3]: no binding (tested: 5 ug/ml)

B2: Dufour (antibody, V domains shown)
VH: QVQLVQSGAEVKKPGASVKVSCKASGYTFTSYNMHWVRQAPGQGLEWMGVIYSGNGDTSYNQKFKGRVTMTTDTSTSTAYMELRSLTSDDTAVYYCARERDTRFGNWGQGTLVTVSA
VL: EIVLTQSPSSLSASVGDRVTITCRASESVDIYGNSFMHWYQQKPGKAPKLLIYLASNLESGVPSRFSGSGSGTDFTLTISSLQPEDFATYYCQQNNEDPYTFGQGTKLEIK
notes: IgG; also called VH1/VL1; HC1 LC1
IC50, inhibition of SCF-dependent proliferation of TF-1 cells (CellTiter-Glo), Average [1]: 0.22 µg/mL | IC50, inhibition of SCF-dependent proliferation of TF-1 cells (CellTiter-Glo), Experiment #1 [1]: 0.12 µg/mL | IC50, inhibition of SCF-dependent proliferation of TF-1 cells (CellTiter-Glo), Experiment #2 [1]: 0.321 µg/mL | IC50, inhibition of SCF-dependent proliferation of CD34-positive HSPCs (CellTiter-Glo) [2]: 0.0949 µg/mL | Kd [4]: 0.4 nM | Kd [5]: 0.79 nM | koff [5]: 0.000397 s⁻¹ | kon [5]: 503000 M⁻¹ s⁻¹

B3: Allalinhorn (antibody, V domains shown)
VH: QVQLVQSGAEVKKPGASVKVSCKASGYTFTSYNMHWVRQAPGQGLEWMGVIYSGNGDTSYNQKFKGRVTMTTDTSTSTAYMELRSLTSDDTAVYYCARERDTRFGNWGQGTLVTVSA
VL: EIVLTQSPSSLSASVGDRVTITCRASESVDIYGESFMHWYQQKPGKAPKLLIYLASNLESGVPSRFSGSGSGTDFTLTISSLQPEDFATYYCQQNKEEPYTFGQGTKLEIKR
notes: IgG; also called VH1/VL1.19; Allaninhorn
IC50, inhibition of SCF-dependent proliferation of TF-1 cells (CellTiter-Glo), Average [1]: 0.0441 µg/mL | IC50, inhibition of SCF-dependent proliferation of TF-1 cells (CellTiter-Glo), Experiment #1 [1]: 0.0415 µg/mL | IC50, inhibition of SCF-dependent proliferation of TF-1 cells (CellTiter-Glo), Experiment #2 [1]: 0.0467 µg/mL | IC50, inhibition of SCF-dependent proliferation of CD34-positive HSPCs (CellTiter-Glo) [2]: 0.0313 µg/mL | Kd [4]: 0.45 nM | EC50 (read off the curve) [3]: ~0.02 µg/mL

B4: Piz Bernina (antibody, V domains shown)
VH: QVQLVQSGAEVKKPGASVKVSCKASGYTFTSYNMHWVRQAPGQGLEWMGVIYSGNGDTSYNQKFKGRVTMTTDTSTSTAYMELRSLTSDDTAVYYCARERDTRFGNWGQGTLVTVSA
VL: EIVLTQSPSSLSASVGDRVTITCRASESVDIYGESFMHWYQQKPGKAPKLLIYLASNLESGVPSRFSGSGSGTDFTLTISSLQPEDFATYYCQQNNEEPYTFGQGTKLEIKR
notes: IgG; also called VH1/VL1.17
IC50, inhibition of SCF-dependent proliferation of TF-1 cells (CellTiter-Glo), Average [1]: 0.0176 µg/mL | IC50, inhibition of SCF-dependent proliferation of TF-1 cells (CellTiter-Glo), Experiment #1 [1]: 0.0122 µg/mL | IC50, inhibition of SCF-dependent proliferation of TF-1 cells (CellTiter-Glo), Experiment #2 [1]: 0.0231 µg/mL | IC50, inhibition of SCF-dependent proliferation of CD34-positive HSPCs (CellTiter-Glo) [2]: 0.00521 µg/mL | Kd [4]: 0.19 nM | EC50 (read off the curve) [3]: ~0.02 µg/mL

B5: Bietschhorn (antibody, V domains shown)
VH: QVQLVQSGAEVKKPGASVKVSCKASGYTFTSYNMHWVRQAPGQGLEWMGVIYSGNGDTSYNQKFKGRVTMTTDTSTSTAYMELRSLTSDDTAVYYCARERDTRFGNWGQGTLVTVSA
VL: EIVLTQSPSSLSASVGDRVTITCRASESVDIYGESFMHWYQQKPGKAPKLLIYLASNLESGVPSRFSGSGSGTDFTLTISSLQPEDFATYYCQQNREEPYTFGQGTKLEIKR
notes: IgG; also called VH1/VL1.29
IC50, inhibition of SCF-dependent proliferation of TF-1 cells (CellTiter-Glo), Average [1]: 0.151 µg/mL | IC50, inhibition of SCF-dependent proliferation of TF-1 cells (CellTiter-Glo), Experiment #1 [1]: 0.0455 µg/mL | IC50, inhibition of SCF-dependent proliferation of TF-1 cells (CellTiter-Glo), Experiment #2 [1]: 0.256 µg/mL | IC50, inhibition of SCF-dependent proliferation of CD34-positive HSPCs (CellTiter-Glo) [2]: 0.0842 µg/mL | Kd [4]: 1.1 nM | EC50 (read off the curve) [3]: ~0.04 µg/mL
